From the supplement of paper PMC9876800

System: peptide library, one residue held at a place counted from the S/T acceptor
Assay: relative phosphorylation of the sub-library (ratio to the mean residue at this position); higher = residue favoured
Conditions: human
Summary of the method: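 Relative sub-library phosphorylation is the ratio of each sub-library's signal to the mean residue at that position. The signal came from phosphorimaging of spots on streptavidin membranes, quantified by densitometry, after purified recombinant kinases reacted with biotinylated degenerate peptide sub-libraries in 384-well plates. Reactions held 50 μM peptide and 50 μM ATP spiked with γ-32P-ATP for 90 min under kinase-specific conditions.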

Sequence of MINK1, construct: aa1-320 (Q8N4C8 1-320, looked up): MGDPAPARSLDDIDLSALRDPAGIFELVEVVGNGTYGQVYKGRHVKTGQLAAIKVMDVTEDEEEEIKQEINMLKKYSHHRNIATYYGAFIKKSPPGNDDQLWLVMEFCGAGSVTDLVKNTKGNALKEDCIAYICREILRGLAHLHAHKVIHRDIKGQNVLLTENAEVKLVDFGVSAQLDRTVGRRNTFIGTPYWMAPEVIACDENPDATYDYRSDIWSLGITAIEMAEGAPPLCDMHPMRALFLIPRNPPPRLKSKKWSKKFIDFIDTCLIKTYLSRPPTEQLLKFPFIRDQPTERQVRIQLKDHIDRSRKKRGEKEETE
Sequence of NUAK1, construct: Full length (O60285 whole entry, looked up): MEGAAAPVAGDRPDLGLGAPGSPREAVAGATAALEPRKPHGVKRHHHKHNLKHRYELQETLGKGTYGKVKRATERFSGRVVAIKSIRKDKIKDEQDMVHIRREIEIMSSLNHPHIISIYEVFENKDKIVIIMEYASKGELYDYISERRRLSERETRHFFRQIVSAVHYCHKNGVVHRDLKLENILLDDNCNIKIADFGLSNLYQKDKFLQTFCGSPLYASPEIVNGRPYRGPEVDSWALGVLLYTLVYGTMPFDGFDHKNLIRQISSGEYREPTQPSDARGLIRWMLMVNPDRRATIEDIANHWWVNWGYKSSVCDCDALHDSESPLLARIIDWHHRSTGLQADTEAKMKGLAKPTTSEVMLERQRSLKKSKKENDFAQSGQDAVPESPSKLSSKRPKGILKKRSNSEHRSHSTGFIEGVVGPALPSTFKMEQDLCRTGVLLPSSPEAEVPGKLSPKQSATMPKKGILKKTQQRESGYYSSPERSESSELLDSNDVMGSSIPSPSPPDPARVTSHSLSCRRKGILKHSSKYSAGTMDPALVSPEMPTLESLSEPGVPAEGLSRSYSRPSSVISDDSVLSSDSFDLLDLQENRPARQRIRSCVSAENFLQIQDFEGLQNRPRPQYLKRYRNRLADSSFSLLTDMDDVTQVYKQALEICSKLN
Sequence of MARK1, construct: Full length (Q9P0L2 whole entry, looked up): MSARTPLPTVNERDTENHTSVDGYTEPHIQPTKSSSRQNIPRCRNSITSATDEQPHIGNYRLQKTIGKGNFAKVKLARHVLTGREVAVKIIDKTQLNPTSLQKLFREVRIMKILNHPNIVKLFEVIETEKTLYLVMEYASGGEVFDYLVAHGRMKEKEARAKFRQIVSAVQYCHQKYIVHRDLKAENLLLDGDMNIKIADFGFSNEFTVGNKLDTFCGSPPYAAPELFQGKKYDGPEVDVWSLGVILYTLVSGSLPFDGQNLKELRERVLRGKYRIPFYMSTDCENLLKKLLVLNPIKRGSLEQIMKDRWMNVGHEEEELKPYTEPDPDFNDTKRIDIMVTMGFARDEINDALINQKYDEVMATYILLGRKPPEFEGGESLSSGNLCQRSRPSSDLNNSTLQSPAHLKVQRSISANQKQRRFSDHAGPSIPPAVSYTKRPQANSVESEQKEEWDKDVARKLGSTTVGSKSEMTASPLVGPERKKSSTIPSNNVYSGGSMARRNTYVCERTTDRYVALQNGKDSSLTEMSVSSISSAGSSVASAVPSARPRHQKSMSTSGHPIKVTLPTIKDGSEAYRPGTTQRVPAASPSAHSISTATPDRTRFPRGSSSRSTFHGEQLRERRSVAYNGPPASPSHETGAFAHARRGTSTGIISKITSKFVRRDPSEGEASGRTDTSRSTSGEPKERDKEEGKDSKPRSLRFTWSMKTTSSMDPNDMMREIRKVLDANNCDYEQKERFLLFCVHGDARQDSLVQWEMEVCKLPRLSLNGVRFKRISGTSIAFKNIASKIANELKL

MARK1, construct: Full length (from UniProt Q9P0L2)
relative phosphorylation
Conditions	at +1	at +2	at +3	at +4	at -1	at -2	at -3	at -4	at -5
A fixed	0.647	0.684	0.599	0.352	1.02	1.84	0.723	0.974	0.972
D fixed	0.508	0.722	3.18	0.56	0.625	0.335	0.358	0.782	0.715
E fixed	0.778	1.09	0.947	0.373	0.616	0.261	0.408	0.696	0.695
F fixed	0.81	0.764	0.898	0.713	0.635	1.48	0.885	1.05	1.18
G fixed	0.497	0.392	0.379	0.421	2.38	0.96	0.556	1.07	0.906
H fixed	0.787	1.08	1.44	0.589	0.783	1.35	1.36	1.25	0.858
I fixed	1.2	0.885	0.565	2.73	0.557	0.503	0.555	0.654	0.974
K fixed	0.837	0.57	0.587	0.483	1.72	0.994	2.18	1.38	1.26
L fixed	1.42	1.13	0.877	4.86	0.751	0.491	0.642	0.747	1.51
M fixed	2.28	1.12	0.774	1.4	0.963	0.76	0.883	0.967	1.27
N fixed	0.949	0.968	2.63	0.679	1.1	0.576	0.571	0.865	0.739
P fixed	0.28	0.59	0.171	0.382	1.13	0.428	0.716	0.856	0.775
Q fixed	1.76	1.04	0.911	0.615	1.16	0.569	0.7	0.805	0.862
R fixed	1.14	0.69	0.476	0.384	1.41	1.08	3.66	1.75	1.48
V fixed	1.36	0.879	0.487	1.28	0.75	0.676	0.525	0.798	0.903
W fixed	0.847	3.44	1.03	0.626	0.636	3.1	1.39	1.26	1.02
Y fixed	0.903	0.958	1.05	0.555	0.766	1.6	0.884	1.09	0.877
pThr fixed	1.58	1.08	0.457	0.348	0.378	0.43	0.445	0.692	0.614
pTyr fixed	0.712	0.641	0.828	0.368	0.881	0.508	0.543	0.659	0.758

MINK1, construct: aa1-320 (from UniProt Q8N4C8)
relative phosphorylation
Conditions	at +1	at +2	at +3	at +4	at -1	at -2	at -3	at -4	at -5
A fixed	0.635	0.904	0.864	0.99	0.952	1.11	1.02	1.08	1.28
D fixed	0.177	0.699	0.464	0.556	0.854	0.746	0.867	1	0.995
E fixed	0.187	0.749	0.405	0.574	0.536	0.498	0.818	0.891	0.801
F fixed	1.16	0.577	0.764	0.533	0.778	1.55	0.946	1.07	0.8
G fixed	0.708	1.09	0.959	1.28	1.69	1.19	1.19	1.19	1.2
H fixed	0.783	1.25	1.25	1.22	1.31	1.13	1.2	1.08	1.09
I fixed	1.91	0.664	0.726	0.983	0.385	0.769	0.784	0.793	0.894
K fixed	0.669	1.93	2.35	1.94	1.25	0.713	1.01	0.947	0.979
L fixed	2.89	0.776	0.869	0.75	0.926	0.789	0.829	0.78	0.73
M fixed	2.32	0.86	0.681	0.897	1.15	0.952	0.95	0.917	0.87
N fixed	0.677	0.937	0.721	1.04	1.49	1.03	1.26	1.03	1.09
P fixed	0.194	1.09	0.892	0.943	0.646	0.675	0.846	0.959	1.06
Q fixed	0.587	0.914	0.818	0.926	1.11	0.882	0.9	0.996	0.958
R fixed	0.65	2.39	2.76	1.74	1.4	0.821	1.15	0.971	1.19
V fixed	1.06	0.763	0.773	0.743	0.536	0.893	0.858	0.966	0.98
W fixed	1.45	0.591	0.928	1.07	0.822	1.38	1.28	1.18	0.978
Y fixed	0.94	0.815	0.778	0.818	1.17	1.87	1.09	1.15	1.1
pThr fixed	0.703	0.621	0.744	0.601	0.629	0.963	1.18	1.07	1.14
pTyr fixed	0.282	0.462	0.623	0.51	0.797	0.745	1.04	0.679	1.06

NUAK1, construct: Full length (from UniProt O60285)
relative phosphorylation
Conditions	at +1	at +2	at +3	at +4	at -1	at -2	at -3	at -4	at -5
A fixed	0.726	0.749	0.566	0.716	1.14	1.47	0.552	1.04	0.835
D fixed	0.449	0.564	0.844	0.464	0.661	0.734	0.4	0.474	0.611
E fixed	0.545	0.312	0.418	0.359	0.488	0.532	0.397	0.867	0.436
F fixed	2.2	0.695	1.33	1.13	0.475	0.586	0.472	0.91	1.12
G fixed	0.839	1.15	0.566	0.81	1.27	0.931	0.454	0.673	0.609
H fixed	0.927	1.14	1.56	1.08	0.951	0.821	1.12	0.995	0.772
I fixed	0.559	1.16	0.888	1.76	0.261	0.557	0.322	0.792	2.04
K fixed	1.19	1.09	1.22	1.01	2.27	0.955	2.72	1.16	1.2
L fixed	0.666	1.19	0.907	2.45	0.613	0.489	0.395	1.12	2.08
M fixed	1.1	1.17	1.08	1.69	0.937	0.837	0.598	1.56	1.33
N fixed	1.2	1.52	1.53	0.786	1.58	4.11	0.691	0.776	0.631
P fixed	0.483	0.753	0.434	0.765	1.63	0.53	0.665	0.929	0.727
Q fixed	1.72	0.954	1	0.743	1.37	1.51	0.786	0.934	0.582
R fixed	1.25	1.7	0.909	0.617	1.6	0.926	6.15	1.41	1.24
V fixed	0.687	1.02	0.735	0.947	0.375	0.864	0.288	0.924	1.21
W fixed	0.935	0.929	1.58	0.809	0.571	0.583	0.521	1.54	0.775
Y fixed	1.51	0.889	1.42	0.869	0.822	0.554	0.468	0.891	0.802
pThr fixed	0.684	0.497	0.396	0.362	0.291	0.397	0.352	0.518	0.373
pTyr fixed	0.597	0.273	0.337	0.346	0.746	0.419	0.445	0.438	0.547
